Experimental data published in patent US20020127541A1 (GOVERNING COUNCIL OF THE UNIVERSITY OF TORONTO, published 2002).

T1: endogenous calnexin (UniProt P27824 21-592)
T1 construct: Endogenous endoplasmic reticulum protein used as a control
T1 sequence (looked up): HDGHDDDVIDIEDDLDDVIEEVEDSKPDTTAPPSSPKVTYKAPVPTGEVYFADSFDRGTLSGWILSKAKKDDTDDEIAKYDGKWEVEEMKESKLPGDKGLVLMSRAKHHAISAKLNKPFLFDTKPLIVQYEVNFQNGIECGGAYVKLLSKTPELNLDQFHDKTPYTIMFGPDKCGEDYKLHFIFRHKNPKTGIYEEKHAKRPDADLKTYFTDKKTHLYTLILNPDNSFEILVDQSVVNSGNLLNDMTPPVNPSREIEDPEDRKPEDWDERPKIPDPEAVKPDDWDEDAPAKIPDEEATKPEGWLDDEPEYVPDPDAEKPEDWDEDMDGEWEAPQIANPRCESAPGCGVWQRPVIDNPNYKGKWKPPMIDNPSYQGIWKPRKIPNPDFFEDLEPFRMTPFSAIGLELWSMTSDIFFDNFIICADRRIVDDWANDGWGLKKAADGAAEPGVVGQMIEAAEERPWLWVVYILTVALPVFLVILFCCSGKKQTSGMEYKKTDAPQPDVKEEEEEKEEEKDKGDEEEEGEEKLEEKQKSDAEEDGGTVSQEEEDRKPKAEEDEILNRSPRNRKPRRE


What was measured:
endogenous calnexin = molecular target: T1, endogenous calnexin; experiment: co-immunoprecipitation
[1] = molecular target: wild type PS1 (wtPS1) holoprotein (human, UniProt P49768 1-467); experiment: co-immunoprecipitation with anti-PS1 loop or N-terminus antibodies, Western blot
Procedure: Co-immunoprecipitation and glycerol velocity gradient fractionation were performed as previously described in Yu et al., 1998, J.Biol.Chem. 273:16470-16475. Immunoprecipitations were performed on cell lysates 48 hours after transient transfections. Total proteins (2 mg/ml) were extracted from cultured cells or brain tissue using a lysis buffer (0.2% NP-40, 0.5% Triton X-100, 50 mM Tris-HCl [pH7.6], 150 mM NaCl, 2 mM EDTA, 2 mM PMSF, […] each of aprotinin, leupeptin, pepstatin). […] New York, Cold Spring Harbor Laboratory Press. Protein A Sepharose was subsequently added to the antibody-antigen complex and incubated for 2 hours at 4° C. The beads were washed four times with a washing buffer (0.2% NP-40, 50 mM Tris-HCl[pH7.6], 150 mM NaCl, 2 mM EDTA). IP products were resolved by SDS-PAGE and investigated for the co-immunoprecipitated partners with the corresponding antibody and detection with ECL (Amersham). […]
Western blots of anti-PS 1 immunoprecipitates from PS1 transfected HEK293 cells were examined for the presence of other arm proteins expressed endogenously in HEK293 cells. Endogenous β-catenin, but not endogenous α-catenin, γ-catenin, or calnexin were detected in Western blots of immunoprecipitation products from HEK293 cells stably transfected with PS1, using either antibodies to PS1 cytoplasmic loop or to the PS1 N-terminus.

binding result (endogenous calnexin)	binding result [1]	Binder
no binding	–	Myc-tagged hNPRAP528-1084 (other, human, Transiently expressed in HEK293 cells; also called myc-hNPRAP) ALKMPIIQDALAVLTNAVIIPHSGWENSPLQDDRKIQLHSSQVLRNATGCLRNVSSAGEEARRRMRECDGLTDALLYVIQSALGSSEIDSKTVENCVCILRNLSYRLAAETSQGQHMGTDELDGLLCGEANGKDAESSGCWGKKKKKKKSQDQWDGVGPLPDCAEPPKGIQMLWHPSIVKPYLTLLSECSNPDTLEGAAGALQNLAAGSWKWSVYIRAAVRKEKGLPILVELLRIDNDRVVCAVATALRNMALDVRNKELIGKYAMRDLVHRLPGGNNSNNTASKAMSDDTVTAVCCTLHEVITKNMENAKALRDAGGIEKLVGISKSKGDKHSPKVVKAASQVLNSMWQYRDLRSLYKKDGWSQYHFVASSSTIERDRQRPYSSSRTPSISPVRVSPNNRSASAPASPREMISLKERKTDYECTGSNATYHGGKGEHTSRKDAMTAQNTGISTLYRNSYGAPAEDIKHNQVSAQPVPQEPSRKDYETYQPFQNSTRNYDESFFEDQVHHRPPASEYTMHLGLKSTGNYVDFYSAARPYSELNYETSHYPASPDSWV
–	no binding	endogenous α-catenin (other, Endogenous protein of HEK293 cell lysates) TAVHAGNINFKWDPKSLEIRTLAVERLLEPLVTQVTTLVNTNSKGPSNKKRGRSKKAHVLAASVEQATENFLEKGDKIAKESQFLKEELVAAVEDVRKQGDLMKAAAGEFADDPCSSVKRGNMVRAARALLSAVTRLLILADMADVYKLLVQLKVVEDGILKLRNAGNEQDLGIQYKALKPEVDKLNIMAAKRQQELKDVGHRDQMAAARGILQKNVPILYTASQACLQHPDVAAYKANRDLIYKQLQQAVTGISNAAQATASDDASQHQGGGGGELAYALNNFDKQIIVDPLSFSEERFRPSLEERLESIISGAALMADSSCTRDDRRERIVAECNAVRQALQDLLSEYMGNAGRKERSDALNSAIDKMTKKTRDLRRQLRKAVMDHVSDSFLETNVPLLVLIEAAKNGNEKEVKEYAQVFREHANKLIEVANLACSISNNEEGVKLVRMSASQLEALCPQVINAALALAAKPQSKLAQENMDLFKEQWEKQVRVLTDAVDDITSIDDFLAVSENHILEDVNKCVIALQEKDVDGLDRTAGAIRGRAARVIHVVTSEMDNYEPGVYTEKVLEATKLLSNTVMPRFTEQVEAAVEALSSDPAQPMDENEFIDASRLVYDGIRDIRKAVLMIRTPEELDDSDFETEDFDVRSRTSVQTEDDQLIAGQSARAIMAQLPQEQKAKIAEQVASFQEEKSKLDAEVSKWDDSGNDIIVLAKQMCMIMMEMTDFTRGKGPLKNTSDVISAAKKIAEAGSRMDKLGRTIADHCPDSACKQDLLAYLQRIALYCHQLNICSKVKAEVQNLGGELVVSGVDSAMSLIQAAKNLMNAVVQTVKASYVASTKYQKSQGMASLNLPAVSWKMKAPEKKPLVKREKQDETQTKIKRASQKKHVNPVQALSEFKAMDSI
